Measurements: the supplement of paper PMC7125110
± gives the standard error. Variants at the floor of the assay were thinned out.

B1: glmS ribozyme (parent)
chain: AUAAAAGCGCCAGAACUACAGAAAUGUAGUUGACGAGGAGGAGGUUUAUCGAAUUUUCGGCGGAUGCCUCCAAA

Variants of: B1
Assay: self-cleavage kobs at 2500 uM GlcN6P; higher = faster cleavage; RNA array
Conditions: with glucosamine-6-phosphate
How it was run: (§1)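 E. coli RNA polymerase transcribed barcoded ribozyme variants in situ on sequenced MiSeq chips, which were tracked via a hybridised Cy3 probe at 37 °C. Tiles were imaged over ~14 h after glucosamine-6-phosphate (40 μM to 10 mM) in HEPES/KCl/Mg(OAc)2 buffer was flowed in. Normalised per-tile medians were fit to one- or two-exponential decays for kobs, and kcat and KM came from weighted Michaelis–Menten fits.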

| Variant | self-cleavage kobs at 2500 uM GlcN6P |
| --- | --- |
| A6G A42U A48C U54C U69A | < 1e-05 s⁻¹ |
| G51U U56A G63U | < 1e-05 s⁻¹ |
| U54A U65A C68G | 0.000194 ± 6.9e-05 s⁻¹ |
| A6U C50G U55G A64G C67U | 0.000132 ± 3.6e-05 s⁻¹ |
| A6C A14U C50G C61G C68G C70U | 0.000499 ± 0.00017 s⁻¹ |
| A6C A14C A15U A42G | < 1e-05 s⁻¹ |
| U57C C61U G63A | < 1e-05 s⁻¹ |
| A6U C50A G51U | < 1e-05 s⁻¹ |
| G44U A48G C50G | < 1e-05 s⁻¹ |
| A6U A15G A53G | 0.000262 ± 4.9e-05 s⁻¹ |
| G7A A15G G29A A36G A52G | < 1e-05 s⁻¹ |
| A6G A42G C67U C70U | < 1e-05 s⁻¹ |
| G44A U46C C68A | < 1e-05 s⁻¹ |
| A6C G41U C58U C68U | < 1e-05 s⁻¹ |
| A6C A39C G60U | < 1e-05 s⁻¹ |
| G44A U47G | 0.00011 ± 3.2e-05 s⁻¹ |
| A6U A14G U69G | 0.000146 ± 3.5e-05 s⁻¹ |
| A52G G66A | 0.000203 ± 4.6e-05 s⁻¹ |
| G7C C11U C34G U49G | < 1e-05 s⁻¹ |
| G7U C16U A33U | < 1e-05 s⁻¹ |
| U47A A48C | 0.000222 ± 3.6e-05 s⁻¹ |
| U57G C58G C67G | 6.13e-05 ± 2.6e-05 s⁻¹ |
| U56C G66C | 8.66e-05 ± 2.4e-05 s⁻¹ |
| G7U A42C A64U G66U | < 1e-05 s⁻¹ |
| G7A A39C G59C C70U | < 1e-05 s⁻¹ |

| Variant | self-cleavage kobs at 2500 uM GlcN6P |
| --- | --- |
| U45G U46C C61A G66U | < 1e-05 s⁻¹ |
| A6U U30A A33C U45G C58A | < 1e-05 s⁻¹ |
| A6G C11A U49G | < 1e-05 s⁻¹ |
| G7C A14U G32U A36G G43C | < 1e-05 s⁻¹ |
| A6C A12G G37A | < 1e-05 s⁻¹ |
| A53G U54A G63U | < 1e-05 s⁻¹ |
| G7U G9C U47A U56G G59U C70A | < 1e-05 s⁻¹ |
| A6C A42U G59U | < 1e-05 s⁻¹ |
| A48G A53G C67G | 6.1e-05 ± 2.3e-05 s⁻¹ |
| A6U G41U G59A G62C | < 1e-05 s⁻¹ |
| A6G G35U G51U C58U | < 1e-05 s⁻¹ |
| A42G U55G A64G C71G | 5.98e-05 ± 2e-05 s⁻¹ |
| A6C U31A A48C | < 1e-05 s⁻¹ |
| U45C U47A | 0.000441 ± 0.00018 s⁻¹ |
| U47A U49G | 7.57e-05 ± 1.8e-05 s⁻¹ |
| A6C U55G C71U | 6.13e-05 ± 2e-05 s⁻¹ |
| U55G U65C C70U | 0.000458 ± 0.00012 s⁻¹ |
| A64C C68A C70G | < 1e-05 s⁻¹ |
| A52C A53U U55A U65A | < 1e-05 s⁻¹ |
| A6G A36U A48U C50U | < 1e-05 s⁻¹ |
| A52U A53G G59C | < 1e-05 s⁻¹ |
| A42U G44C A52C U57G U65A U69C | < 1e-05 s⁻¹ |
| A5U A64U | 8.83e-05 ± 2.8e-05 s⁻¹ |
| U55A U65C C68U | 0.000114 ± 3.5e-05 s⁻¹ |

Variants of: B1
Assay: self-cleavage kobs at 640 uM GlcN6P; higher = faster cleavage; RNA array
Conditions: with glucosamine-6-phosphate
How it was run: as §1

| Variant | self-cleavage kobs at 640 uM GlcN6P |
| --- | --- |
| A53G G60A C61G | < 1e-05 s⁻¹ |
| G51U U56A G63U | < 1e-05 s⁻¹ |
| G51U G63A C68G | 9.2e-05 ± 3e-05 s⁻¹ |
| U54A U65A C68G | 5.85e-05 ± 2.8e-05 s⁻¹ |
| C58U A64C C71A | < 1e-05 s⁻¹ |
| A53U C58U C67U | 9.41e-05 ± 4.6e-05 s⁻¹ |
| U57C C61U G63A | < 1e-05 s⁻¹ |
| U45C C50A U56C | < 1e-05 s⁻¹ |
| G44U A48G C50G | < 1e-05 s⁻¹ |
| G59U G62A | < 1e-05 s⁻¹ |
| U55G G62A G63U | < 1e-05 s⁻¹ |
| G44A U46C C68A | < 1e-05 s⁻¹ |
| G44A U47G | 5.51e-05 ± 2.3e-05 s⁻¹ |
| A52G G66A | 0.000162 ± 3e-05 s⁻¹ |
| U47A A48C | 0.000145 ± 2.2e-05 s⁻¹ |
| U57G C58G C67G | 0.000157 ± 5.5e-05 s⁻¹ |
| U56C G66C | 6.26e-05 ± 2.2e-05 s⁻¹ |
| U45G U46C C61A G66U | < 1e-05 s⁻¹ |
| U55G U56A G60U C71U | < 1e-05 s⁻¹ |
| U47A G60C U69C | 0.00785 ± 0.0036 s⁻¹ |

| Variant | self-cleavage kobs at 640 uM GlcN6P |
| --- | --- |
| U49C G63C C67G C68G | < 1e-05 s⁻¹ |
| A53G U54A G63U | < 1e-05 s⁻¹ |
| C58G G59U C68G | 4.54e-05 ± 1.7e-05 s⁻¹ |
| U47A G63A | < 1e-05 s⁻¹ |
| A48G A53G C67G | 6.02e-05 ± 2.2e-05 s⁻¹ |
| A42G U55G A64G C71G | 0.000116 ± 3.7e-05 s⁻¹ |
| A48U U55G C71A | 2.8e-05 ± 1.3e-05 s⁻¹ |
| U45C U47A | 0.000335 ± 8.3e-05 s⁻¹ |
| U47G G63U C68G | 6.95e-05 ± 3.1e-05 s⁻¹ |
| U47A U49G | 3.82e-05 ± 1.4e-05 s⁻¹ |
| G60U G62A C67U | < 1e-05 s⁻¹ |
| A52C U56C C67U | < 1e-05 s⁻¹ |
| U55G U65C C70U | 0.00017 ± 3.7e-05 s⁻¹ |
| A64C C68A C70G | < 1e-05 s⁻¹ |
| A52C A53U U55A U65A | < 1e-05 s⁻¹ |
| C50G A52U C70U | 0.000121 ± 5e-05 s⁻¹ |
| A52U A53G G59C | < 1e-05 s⁻¹ |
| A42U G44C A52C U57G U65A U69C | < 1e-05 s⁻¹ |
| G59A G60U C67U | < 1e-05 s⁻¹ |
| U55A U65C C68U | 0.000206 ± 8.7e-05 s⁻¹ |

Variants of: B1
Assay: self-cleavage kobs at 10000 uM GlcN6P; higher = faster cleavage; RNA array
Conditions: with glucosamine-6-phosphate
How it was run: as §1

| Variant | self-cleavage kobs at 10000 uM GlcN6P |
| --- | --- |
| U57C C61U G63A | < 1e-05 s⁻¹ |
| G44U A48G C50G | < 1e-05 s⁻¹ |
| A6U A15G A53G | 0.000262 ± 5.8e-05 s⁻¹ |
| G59U G62A | < 1e-05 s⁻¹ |
| U55G G62A G63U | < 1e-05 s⁻¹ |
| G44A U47G | 0.000111 ± 2.2e-05 s⁻¹ |
| A52G G66A | 0.000481 ± 0.00017 s⁻¹ |
| U47A A48C | 0.000561 ± 0.0001 s⁻¹ |
| U57G C58G C67G | 3.89e-05 ± 1.9e-05 s⁻¹ |
| A6C U31A A48C | < 1e-05 s⁻¹ |
